Test [1] addresses soluble CD14 DDED deletion mutant (residues 9-12 of SEQ ID NO: 1 deleted) (human) (UniProt P08571). The test can be described thus: ELISA, mutant CD14 coated, biotinylated mAb; grade = OD as % of wild-type CD14 (+ 11-50%). Background: In an ELISA, binding on a coated surface is turned into a signal by an enzyme label.
Test [2] addresses soluble CD14 PQPD deletion mutant (residues 22-25 of SEQ ID NO: 1 deleted) (human) (UniProt P08571). Described as above.
Test [3] concerns the target soluble CD14 DPRQY deletion mutant (residues 59-63 of SEQ ID NO: 1 deleted) (human) (UniProt P08571). The test can be described thus: ELISA, mutant CD14 coated, biotinylated mAb; grade = OD as % of wild-type CD14 (++++ >90%).
The target of test [4] is soluble CD14 AVEVE deletion mutant (residues 35-39 of SEQ ID NO: 1 deleted) (human) (UniProt P08571). The test can be described thus: ELISA, mutant CD14 coated, biotinylated mAb; grade = OD as % of wild-type CD14 (++ 51-75%).
In test [5] the target is soluble CD14 DDED deletion mutant (residues 9-12 of SEQ ID NO: 1 deleted) (human) (UniProt P08571). The test can be described thus: ELISA, mutant CD14 coated, biotinylated mAb; grade = OD as % of wild-type CD14 (+++ 76-90%).
Test [6] addresses soluble CD14 DDED/PQPD double deletion mutant (residues 9-12 and 22-25 of SEQ ID NO: 1 deleted) (human) (UniProt P08571). Described as above.
The target of test [7] is soluble CD14 PQPD deletion mutant (residues 22-25 of SEQ ID NO: 1 deleted) (human) (UniProt P08571). The description is as above.
Test [8] concerns the target soluble CD14 DPRQY deletion mutant (residues 59-63 of SEQ ID NO: 1 deleted) (human) (UniProt P08571). The test can be described thus: ELISA, mutant CD14 coated, biotinylated mAb; grade = OD as % of wild-type CD14 (++ 51-75%).
In test [9] the target is soluble CD14 DDED deletion mutant (residues 9-12 of SEQ ID NO: 1 deleted) (human) (UniProt P08571). The test can be described thus: ELISA, mutant CD14 coated, biotinylated mAb; grade = OD as % of wild-type CD14 (++++ >90%).
Test [10] concerns the target soluble CD14 DDED/PQPD double deletion mutant (residues 9-12 and 22-25 of SEQ ID NO: 1 deleted) (human) (UniProt P08571). Described as above.

On to anti-CD14 monoclonal antibody UCHM-1, for which the OD405 as percent of wild-type CD14 OD in [1] was 11 to 50%; in test [2] it was 11 to 50%; in test [3], more than 90%.

For anti-CD14 monoclonal antibody MEM-18, the OD405 as percent of wild-type CD14 OD in [4] lay within 51 to 75%; in [5], 76 to 90%; in [6] it was 76 to 90%; in [7], 76 to 90%.

In [8], anti-CD14 monoclonal antibody MO-2 came in with an OD405 as percent of wild-type CD14 OD of 51 to 75%.

Regarding anti-CD14 monoclonal antibody 63D3, the OD405 as percent of wild-type CD14 OD in test [4] is 51 to 75%; in [9], more than 90%; in [10], more than 90%; in test [3] it was more than 90%; in test [7], 76 to 90%.

In turn, anti-CD14 monoclonal antibody MY4 registered an OD405 as percent of wild-type CD14 OD in test [3] of more than 90%.

For the origin of these results see US20030114377A1.
